Laboratory results taken from PMC8297783, “Autocrine signaling by receptor tyrosine kinases in urothelial carcinoma of the bladder” (PLoS ONE, 2021).

Tested on: FL3 cells
Experiment: cell proliferation assay, FL3 cells
Type: cell-based, Human
Conditions: 1% FBS, 6 d, added MST1 alone 5 nM, relative to untreated cells

B1: MST1: exogenous cognate ligand of MST1R, added to cells at 5 nM (protein, UniProt P26927 19-711, looked up)
Hepatocyte growth factor-like …: QRSPLNDFQVLRGTELQHLLHAVVPGPWQEDVADAEECAGRCGPLMDCRAFHYNVSSHGCQLLPWTQHSPHTRLRRSGRCDLFQKKDYVRTCIMNNGVGYRGTMATTVGGLPCQAWSHKFPNDHKYTPTLRNGLEENFCRNPDGDPGGPWCYTTDPAVRFQSCGIKSCREAACVWCNGEEYRGAVDRTESGRECQRWDLQHPHQHPFEPGKFLDQGLDDNYCRNPDGSERPWCYTTDPQIEREFCDLPRCGSEAQPRQEATTVSCFRGKGEGYRGTANTTTAGVPCQRWDAQIPHQHRFTPEKYACKDLRENFCRNPDGSEAPWCFTLRPGMRAAFCYQIRRCTDDVRPQDCYHGAGEQYRGTVSKTRKGVQCQRWSAETPHKPQFTFTSEPHAQLEENFCRNPDGDSHGPWCYTMDPRTPFDYCALRRCADDQPPSILDPPDQVQFEKCGKRVDRLDQRRSKLRVVGGHPGNSPWTVSLRNRQGQHFCGGSLVKEQWILTARQCFSSCHMPLTGYEVWLGTLFQNPQHGEPSLQRVPVAKMVCGPSGSQLVLLKLERSVTLNQRVALICLPPEWYVVPPGTKCEIAGWGETKGTGNDTVLNVALLNVISNQECNIKHRGRVRESEMCTEGLLAPVGACEGDYGGPLACFTHNCWVLEGIIIPNRVCARSRWPAVFTRVSVFVDWIHKVMRLG
With B1 the proliferation rate was “significantly increased proliferation rate”.
